Literature values in patent publication US20140212945.

Target: T1, MBNL1 (muscleblind-like 1 protein) (UniProt Q9NR56)
T1 sequence: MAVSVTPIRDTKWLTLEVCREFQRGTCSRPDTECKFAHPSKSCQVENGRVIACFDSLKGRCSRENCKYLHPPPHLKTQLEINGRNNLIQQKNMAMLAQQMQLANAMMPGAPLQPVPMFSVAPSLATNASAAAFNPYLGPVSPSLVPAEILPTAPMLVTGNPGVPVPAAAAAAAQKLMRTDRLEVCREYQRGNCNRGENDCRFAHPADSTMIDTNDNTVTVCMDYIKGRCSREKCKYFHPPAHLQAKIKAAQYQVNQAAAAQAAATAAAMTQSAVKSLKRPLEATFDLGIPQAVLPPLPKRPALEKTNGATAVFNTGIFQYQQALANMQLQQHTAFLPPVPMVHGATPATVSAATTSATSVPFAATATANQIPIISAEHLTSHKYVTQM
Conditions: CITED; value taken from previous report (ref 15 / ref 13); Table 5 lists the same value for r(CUG)exp

For r(CUG)12x2, the Kd is given as 250 nM.
